Data on two molecules can be found in patent US20250197482A1.

Test [1] deals with BG505 DS-SOSIP.664 Env trimer (HIV-1). Kind of test: ITC, 37 C, PBS pH 7.4, nanobody titrated into trimer.
The target is the same in test [2]. Kind of test: ITC, 37 C, PBS pH 7.4, antibody titrated into trimer. In general terms: Isothermal titration calorimetry measures the heat released or taken up as one component is titrated into another.
In test [3] the target is CAP256 soluble Env trimer (clade C), stabilized in the prefusion-closed conformation (HIV-1). The test can be described thus: ELISA, lectin-captured trimer, expression supernatant, single point, OD 450 nm. (In general: An ELISA detects its analyte on a solid surface through an enzyme-linked reagent.)
Test [4] concerns the target JRFL soluble Env trimer (clade B), stabilized in the prefusion-closed conformation (HIV-1). Described as above.
The target in test [5] is K169V variant of CAP256 soluble Env trimer (HIV-1). The test is described as above.
The target of test [6] is 426C-WITO soluble Env trimer (clade B), stabilized in the prefusion-closed conformation (HIV-1). The test can be described thus: ELISA, lectin-captured trimer, expression supernatant, single point, OD 450 nm, column 426c-WITO-degly3.

B1: J3 nanobody (VHH)
VHH: EVQLVESGGGLVQAGGFLRLSCELRGSIFNQYAMAWFRQAPGKEREFVAGMGAVPHYGEFVKGRFTISRDNAKSTVYLQMSSLKPEDTAIYFCARSKSTYISYNSNGYDYWGRGTQVTVSS
Consider B1, for which, in test [1], the -TΔS came out at 1.4 kcal/mol; the dissociation constant Kd (commonly the free concentration of one partner at which half of the binding sites on the other are occupied at equilibrium, for simple one-to-one binding) stood at 92 nM; the N (stoichiometry) (Antigen Binding Sites per Trimer) was found to be 3.1; the ΔG was -10 kcal/mol. In test [1], this molecule displayed a ΔH of -11.4 kcal/mol.

B2: CAP256V2LS (antibody, V domains shown)
VH: QVQLVESGGGVVQPGTSLRLSCAASQFRFDGYGMHWVRQAPGKGLEWVASISHDGIKKYHAEKVWGRFTISRDNSKNTLYLQMNSLRPEDTALYYCAKDLREDECEEWWSDYYDFGAQLPCAKSRGGLVGIADNWGQGTMVTVSS
VL: QSVLTQPPSVSAAPGQKVTISCSGNTSNIGNNFVSWYQQRPGRAPQLLIYETDKRPSGIPDRFSASKSGTSGTLAITGLQTGDEADYYCATWAASLSSARVFGTGTQVIVLG
For the molecule B2, in test [2], the -TΔS is 15 kcal/mol, the Kd is 34 nM, the N (stoichiometry) (Antigen Binding Sites per Trimer) worked out at 1 and the ΔG was -10.6 kcal/mol. In test [2], this molecule gave a ΔH of -25.6 kcal/mol. In addition, the ELISA binding in test [3] was determined as 2.16. The molecule further had an ELISA binding in test [4] of 0.361. Moreover, the ELISA binding in test [5] is 2.42. Further, the ELISA binding in test [6] came to 0.382.
